For the test, the target named is CapAB(K55M), inactive P-loop mutant of the CapAB chimeric protein, unphosphorylated (Staphylococcus aureus). Description: crystal structure; CapAB(K55M) at 8.5 mg/ml with 10 mM MgCl2, 20% (v/v) PEG 1000, 200 mM glycine, 0.1 M Na-Hepes pH 7.5, 18 °C; 2.6 Å.

In general, stoichiometry N refers to the number of molecules, sites or subunits per partner or assembly. In the case of “CapAB(K55M), inactive P-loop mutant of the CapAB chimeric protein, unphosphorylated”, the stoichiometry N was 8.

These data come from article PMC2422856.
